B1: Azoarcus group I ribozyme (parent)
chain: GUGCCUUGCGCCGGGAAACCACGCAAGGGAUGGUGUCAAAUUCGGCGAAACCUAAGCGCCCGCCCGGGCGUAUGGCAACGCCGAGCCAAGCUUCGGCGCCUGCGCCGAUGAAGGUGUAGAGACUAGACGGCACCCACCUAAGGCAAACGCUAUGGUGAAGGCAUAGUCCAGGGAGUGGCGAAAGUCACACAAACCGG

Variants of: B1
Assay: reverse-splicing fitness (ratio to wild type); higher = more active; in vitro selection; Mg2+ level not given
Method in brief: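 An in vitro group I ribozyme library with randomized positions was T7-transcribed and gel-purified. In triplicate, 10 pmol RNA in EPPS pH 7.5 was reacted with 50 pmoles of a 30-nt RNA substrate for 1 h at 37 °C across several added MgCl2 levels (1–48 mM), then stopped with EDTA. Products were reverse transcribed from a substrate-complementary primer, PCR-amplified and sequenced (HiSeq 4000). Fitness is a variant's read proportion after selection over that before, normalised to wild type.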

| Variant | reverse-splicing fitness |
| --- | --- |
| GUGCCUUGCGCCGGGAAACCACGCAAGGGAUGGUGUCAAAUUCGGCGAAACCUAAGCGCCCGCCCGGGCGUAUGGCAACGCGGAGCCAAGCUUCGGCGCCUGCGCCGAUGCAGGUGUAGAGACUAGACGGCACCCACCUAAGGCCAACGUUAUGGUGAAGGCAUAGUCAAGGGAGCGGCGAAAGUCACACAAACCGG [C82G A111C A145C C150U C169A U176C] | 0.0132 |
| GUGCCUUGCGCCGGGAAACCACGCAAGGGAUGGUGUCAAAUUCGGCGAAACCUAAGCGCCCGCCCGGGCGUAUGGCAACGCGGAGCCAAGCUUCGGCGCCUGCGCCGAUGCAGGUGUAGAGACUAGACGGCACCCACCUAAGGCCAACGUUAUGGUGAAGGCAUAGUCAAGGGAGGGGCGAAAGUCACACAAACCGG [C82G A111C A145C C150U C169A U176G] | 0.00839 |
| GUGCCUUGCGCCGGGAAACCACGCAAGGGAUGGUGUCAAAUUCGGCGAAACCUAAGCGCCCGCCCGGGCGUAUGGCAACGCGGAGCCAAGCUUCGGCGCCUGCGCCGAUGCAGGUGUAGAGACUAGACGGCACCCACCUAAGGCCAACGUUAUGGUGAAGGCAUAGUCAAGGGAGAGGCGAAAGUCACACAAACCGG [C82G A111C A145C C150U C169A U176A] | 0.0156 |
| GUGCCUUGCGCCGGGAAACCACGCAAGGGAUGGUGUCAAAUUCGGCGAAACCUAAGCGCCCGCCCGGGCGUAUGGCAACGCGGAGCCAAGCUUCGGCGCCUGCGCCGAUGCAGGUGUAGAGACUAGACGGCACCCACCUAAGGCCAACGUUAUGGUGAAGGCAUAGUCAAGGGAGUGGCGAAAGUCACACAAACCGG [C82G A111C A145C C150U C169A] | 0.00808 |
| GUGCCUUGCGCCGGGAAACCACGCAAGGGAUGGUGUCAAAUUCGGCGAAACCUAAGCGCCCGCCCGGGCGUAUGGCAACGCGGAGCCAAGCUUCGGCGCCUGCGCCGAUGCAGGUGUAGAGACUAGACGGCACCCACCUAAGGCCAACGUUAUGGUGAAGGCAUAGUCGAGGGAGUGGCGAAAGUCACACAAACCGG [C82G A111C A145C C150U C169G] | 0.00777 |
| GUGCCUUGCGCCGGGAAACCACGCAAGGGAUGGUGUCAAAUUCGGCGAAACCUAAGCGCCCGCCCGGGCGUAUGGCAACGCGGAGCCAAGCUUCGGCGCCUGCGCCGAUGCAGGUGUAGAGACUAGACGGCACCCACCUAAGGCCAACGUUAUGGUGAAGGCAUAGUCUAGGGAGUGGCGAAAGUCACACAAACCGG [C82G A111C A145C C150U C169U] | 0.0113 |
| GUGCCUUGCGCCGGGAAACCACGCAAGGGAUGGUGUCAAAUUCGGCGAAACCUAAGCGCCCGCCCGGGCGUAUGGCAACGCGGAGCCAAGCUUCGGCGCCUGCGCCGAUGCAGGUGUAGAGACUAGACGGCACCCACCUAAGGCCAACGGUAUGGUGAAGGCAUAGUCGAGGGAGAGGCGAAAGUCACACAAACCGG [C82G A111C A145C C150G C169G U176A] | 0.00893 |
| GUGCCUUGCGCCGGGAAACCACGCAAGGGAUGGUGUCAAAUUCGGCGAAACCUAAGCGCCCGCCCGGGCGUAUGGCAACGCGGAGCCAAGCUUCGGCGCCUGCGCCGAUGCAGGUGUAGAGACUAGACGGCACCCACCUAAGGCCAACGGUAUGGUGAAGGCAUAGUCGAGGGAGGGGCGAAAGUCACACAAACCGG [C82G A111C A145C C150G C169G U176G] | 0.00664 |
| GUGCCUUGCGCCGGGAAACCACGCAAGGGAUGGUGUCAAAUUCGGCGAAACCUAAGCGCCCGCCCGGGCGUAUGGCAACGCGGAGCCAAGCUUCGGCGCCUGCGCCGAUGCAGGUGUAGAGACUAGACGGCACCCACCUAAGGCCAACGGUAUGGUGAAGGCAUAGUCGAGGGAGCGGCGAAAGUCACACAAACCGG [C82G A111C A145C C150G C169G U176C] | 0.0101 |
| GUGCCUUGCGCCGGGAAACCACGCAAGGGAUGGUGUCAAAUUCGGCGAAACCUAAGCGCCCGCCCGGGCGUAUGGCAACGCGGAGCCAAGCUUCGGCGCCUGCGCCGAUGCAGGUGUAGAGACUAGACGGCACCCACCUAAGGCCAACGGUAUGGUGAAGGCAUAGUCUAGGGAGUGGCGAAAGUCACACAAACCGG [C82G A111C A145C C150G C169U] | 0.00892 |
| GUGCCUUGCGCCGGGAAACCACGCAAGGGAUGGUGUCAAAUUCGGCGAAACCUAAGCGCCCGCCCGGGCGUAUGGCAACGCGGAGCCAAGCUUCGGCGCCUGCGCCGAUGCAGGUGUAGAGACUAGACGGCACCCACCUAAGGCCAACGGUAUGGUGAAGGCAUAGUCAAGGGAGUGGCGAAAGUCACACAAACCGG [C82G A111C A145C C150G C169A] | 0.00941 |
| GUGCCUUGCGCCGGGAAACCACGCAAGGGAUGGUGUCAAAUUCGGCGAAACCUAAGCGCCCGCCCGGGCGUAUGGCAACGCGGAGCCAAGCUUCGGCGCCUGCGCCGAUGCAGGUGUAGAGACUAGACGGCACCCACCUAAGGCCAACGGUAUGGUGAAGGCAUAGUCGAGGGAGUGGCGAAAGUCACACAAACCGG [C82G A111C A145C C150G C169G] | 0.00675 |
| GUGCCUUGCGCCGGGAAACCACGCAAGGGAUGGUGUCAAAUUCGGCGAAACCUAAGCGCCCGCCCGGGCGUAUGGCAACGCGGAGCCAAGCUUCGGCGCCUGCGCCGAUGCAGGUGUAGAGACUAGACGGCACCCACCUAAGGCCAACGUUAUGGUGAAGGCAUAGUCGAGGGAGAGGCGAAAGUCACACAAACCGG [C82G A111C A145C C150U C169G U176A] | 0.0245 |
| GUGCCUUGCGCCGGGAAACCACGCAAGGGAUGGUGUCAAAUUCGGCGAAACCUAAGCGCCCGCCCGGGCGUAUGGCAACGCGGAGCCAAGCUUCGGCGCCUGCGCCGAUGCAGGUGUAGAGACUAGACGGCACCCACCUAAGGCCAACGUUAUGGUGAAGGCAUAGUCGAGGGAGGGGCGAAAGUCACACAAACCGG [C82G A111C A145C C150U C169G U176G] | 0.00873 |
| GUGCCUUGCGCCGGGAAACCACGCAAGGGAUGGUGUCAAAUUCGGCGAAACCUAAGCGCCCGCCCGGGCGUAUGGCAACGCGGAGCCAAGCUUCGGCGCCUGCGCCGAUGCAGGUGUAGAGACUAGACGGCACCCACCUAAGGCCAACGUUAUGGUGAAGGCAUAGUCGAGGGAGCGGCGAAAGUCACACAAACCGG [C82G A111C A145C C150U C169G U176C] | 0.0189 |
